From article PMC9453709 come the findings set out here.

This assay addresses SARS-CoV-2 Omicron BA.1 S glycoprotein ectodomain with S6P and GSAS mutations (SARS-CoV-2). In words: cryo-EM structure.

By stoichiometry N is commonly meant the number of molecules, sites or subunits per partner or assembly. Consider “SARS-CoV-2 Omicron BA.1 S glycoprotein ectodomain with S6P and GSAS mutations (domain or fragment)”, for which the stoichiometry N was found to be 3.
